The assay addresses T1, TLR3-YFP (Toll-Like Receptor 3 fused to yellow fluorescent polypeptide), stably expressed in HELA cells (UniProt O15455 24-904).
T1 construct: Immunoprecipitated from whole cell lysates with anti-GFP antibody; not shown: yellow fluorescent polypeptide (YFP)
T1 sequence (looked up): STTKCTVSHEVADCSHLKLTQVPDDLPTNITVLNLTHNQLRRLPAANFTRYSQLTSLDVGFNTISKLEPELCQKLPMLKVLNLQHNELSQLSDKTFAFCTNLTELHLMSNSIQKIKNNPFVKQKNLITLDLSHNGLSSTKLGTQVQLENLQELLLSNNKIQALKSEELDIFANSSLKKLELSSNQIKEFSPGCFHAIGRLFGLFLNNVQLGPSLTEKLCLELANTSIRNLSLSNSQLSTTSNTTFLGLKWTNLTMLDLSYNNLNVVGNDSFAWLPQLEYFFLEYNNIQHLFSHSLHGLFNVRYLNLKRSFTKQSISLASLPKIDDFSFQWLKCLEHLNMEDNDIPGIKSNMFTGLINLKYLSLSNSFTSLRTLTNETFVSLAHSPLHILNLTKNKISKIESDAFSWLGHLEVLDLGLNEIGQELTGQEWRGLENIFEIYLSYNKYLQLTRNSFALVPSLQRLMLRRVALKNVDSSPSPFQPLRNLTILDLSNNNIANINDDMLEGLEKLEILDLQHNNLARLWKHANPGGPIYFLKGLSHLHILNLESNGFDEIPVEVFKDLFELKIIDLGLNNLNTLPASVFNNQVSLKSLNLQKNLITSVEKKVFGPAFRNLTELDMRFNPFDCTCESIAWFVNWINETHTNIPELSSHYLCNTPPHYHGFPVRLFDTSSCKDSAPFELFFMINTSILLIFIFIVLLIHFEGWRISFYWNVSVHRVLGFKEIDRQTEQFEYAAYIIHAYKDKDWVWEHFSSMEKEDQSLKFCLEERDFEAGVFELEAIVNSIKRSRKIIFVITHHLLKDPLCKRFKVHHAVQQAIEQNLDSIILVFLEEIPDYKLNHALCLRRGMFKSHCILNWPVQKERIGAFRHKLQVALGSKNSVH
In words: co-immunoprecipitation from TLR3-YFP HELA cell lysates with anti-GFP, blot for Flag. How it is done: 293T cells or TLR-expressing cells (10 cm plates) were transfected using GeneJuice (Novagen) with 4 μg of the indicated plasmids. One to two days after transfection, the cells were lysed in 1 ml of lysis buffer (20 mM Tris-HCl, 2 mM EDTA, 137 mM NaCl, 0.5% Triton X-100, 10% glycerol with protease inhibitors). Polyclonal anti-GFP (Molecular Probes), anti-IRF-3 or anti-CBP antibodies were incubated overnight with the cell lysates in […]. The immune complexes were precipitated and subjected to 4-15% SDS-PAGE and immunoblotted for FLAG- or CFP/YFP-tagged adapters using the anti-Flag mAb M2 (Sigma), or anti-GFP mAb (Clontech), which also recognizes the spectral variants of GFP.
Co-immunoprecipitation studies were performed to determine if TRAM interacts with TLR4. Stable TLR4^YFP- or TLR3^YFP-expressing HELA cells were transiently transfected with 4 μg of plasmid encoding Flag-Mal, Flag-TRAM or Flag TRAM-C117H. Forty-eight hours after transfection, whole cell lysates were immunoprecipitated with anti-GFP antibody and immunoprecipitated complexes immunoblotted for Flag-tagged adapters and co-immunoprecipitation experiments performed.

B1: Flag-tagged Mal (MyD88 adaptor-like; TIRAP) (other, UniProt P58753-2 1-235, looked up)
chain: MASSTSLPAPGSRPKKPLGKMADWFRQTLLKKPKKRPNSPESTSSDASQPTSQDSPLPPSLSSVTSPSLPPTHASDSGSSRWSKDYDVCVCHSEEDLVAAQDLVSYLEGSTASLRCFLQLRDATPGGAIVSELCQALSSSHCRVLLITPGFLQDPWCKYQMLQALTEAPGAEGCTIPLLSGLSRAAYPPELRFMYYVDGRGPDGGFRQVKEAVMRCKLLQEGEGERDSATVSDLL
notes: pEF-Bos-Flag Mal as described in Fitzgerald et al; also called Flag-Mal; pEF-Bos-Flag Mal; not shown: Flag tag
Turning to B1, the binding result was “no binding”.

These data come from patent US20050158799A1 (published 2005).
